Test results published in patent publication US20180238885A1 (INSERM INSITUT NATIONAL DE LA SANTE ET DE LA RECHERCHE …, published 2018).

Molecular target: DNMT3A (DNA methyltransferase 3A) (Homo sapiens (Human), UniProt Q9Y6K1 1-912)
Assay: epitope mapping on a membrane of 12-mer DNMT3A peptides, 2 µg GST-ISGF3γ, fluorescence detection
Experimental: Then, 2 μg of GST-ISGF3γ protein were incubated with the membrane.

DNMT3A (DNA methyltransferase 3A), sequence (Q9Y6K1 whole entry): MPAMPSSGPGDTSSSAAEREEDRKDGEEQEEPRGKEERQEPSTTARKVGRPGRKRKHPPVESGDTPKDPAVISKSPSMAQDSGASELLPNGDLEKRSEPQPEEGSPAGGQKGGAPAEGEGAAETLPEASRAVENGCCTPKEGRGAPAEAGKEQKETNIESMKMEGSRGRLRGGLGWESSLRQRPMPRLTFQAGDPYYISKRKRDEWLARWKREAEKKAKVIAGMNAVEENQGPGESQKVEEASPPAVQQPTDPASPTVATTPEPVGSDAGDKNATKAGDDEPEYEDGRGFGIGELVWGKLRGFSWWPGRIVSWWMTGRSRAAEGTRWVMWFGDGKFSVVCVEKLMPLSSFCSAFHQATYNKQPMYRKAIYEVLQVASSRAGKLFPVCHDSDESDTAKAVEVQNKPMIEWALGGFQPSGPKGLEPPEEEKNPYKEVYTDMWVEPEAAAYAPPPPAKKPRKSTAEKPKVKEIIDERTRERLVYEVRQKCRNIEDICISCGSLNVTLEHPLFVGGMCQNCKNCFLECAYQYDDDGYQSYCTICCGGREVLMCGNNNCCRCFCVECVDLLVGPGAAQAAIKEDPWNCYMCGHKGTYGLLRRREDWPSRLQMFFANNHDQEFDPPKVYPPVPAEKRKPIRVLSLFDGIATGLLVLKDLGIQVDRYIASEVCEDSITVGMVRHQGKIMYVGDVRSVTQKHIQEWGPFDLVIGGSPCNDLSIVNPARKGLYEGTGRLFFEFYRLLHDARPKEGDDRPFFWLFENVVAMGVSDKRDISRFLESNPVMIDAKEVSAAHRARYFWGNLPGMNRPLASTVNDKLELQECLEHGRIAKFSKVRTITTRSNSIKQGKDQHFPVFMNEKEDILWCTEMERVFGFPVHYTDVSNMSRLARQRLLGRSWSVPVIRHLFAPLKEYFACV

binding result: binds
B1: GST-ISGF3γ protein (other)
chain: MASGRARCTRKLRNWVVEQVESGQFPGVCWDDTAKTMFRIPWKHAGKQDFREDQDAAFFKAWAIFKGKYKEGDTGGPAVWKTRLRCALNKSSEFKEVPERGRMDVAEPYKVYQLLPPGIVSGQPGTQKVPSKRQHSSVSSERKEEEDAMQNCTLSPSVLQDSLNNEEEGASGGAVHSDIGSSSSSSSPEPQEVTDTTEAPFQGDQRSLEFLLPPEPDYSLLLTFIYNGRVVGEAQVQSLDCRLVAEPSGSESSMEQVLFPKPGPLEPTQRLLSQLERGILVASNPRGLFVQRLCPIPISWNAPQAPPGPGPHLLPSNECVELFRTAYFCRDLVRYFQGLGPPPKFQVTLNFWEESHGSSHTPQNLITVKMEQAFARYLLEQTPEQQAAILSLV
notes: Recombinant fusion used at 2 µg on the DNMT3A peptide membrane; not shown: GST (glutathione S-transferase) tag
